# Experimental data: US20200297818A1 (ZEALAND PHARMA A S, published 2020)
# Residue numbers refer to the chain shown, from its start. *1 amine or outer side, *2 acyl side, *3 side chain or, on linkers, in order; H or OH if unused. Side-chain parts run from the residue outwards. [ ]: non-standard residue; d: D form. The star is where a group is joined. C20 diacid = O=C(O)CCCCCCCCCCCCCCCCCCC(=O)*; γGlu = O=C(O)[C@H](CCC(=O)[*:2])N[*:1]; AEEA = NCCOCCOCC(=O)O; Aib = CC(C)(N)C(=O)O
# T1: human GLP-2 receptor (hGLP2-R) (human, UniProt O95838 1-553)
# T1 sequence (looked up): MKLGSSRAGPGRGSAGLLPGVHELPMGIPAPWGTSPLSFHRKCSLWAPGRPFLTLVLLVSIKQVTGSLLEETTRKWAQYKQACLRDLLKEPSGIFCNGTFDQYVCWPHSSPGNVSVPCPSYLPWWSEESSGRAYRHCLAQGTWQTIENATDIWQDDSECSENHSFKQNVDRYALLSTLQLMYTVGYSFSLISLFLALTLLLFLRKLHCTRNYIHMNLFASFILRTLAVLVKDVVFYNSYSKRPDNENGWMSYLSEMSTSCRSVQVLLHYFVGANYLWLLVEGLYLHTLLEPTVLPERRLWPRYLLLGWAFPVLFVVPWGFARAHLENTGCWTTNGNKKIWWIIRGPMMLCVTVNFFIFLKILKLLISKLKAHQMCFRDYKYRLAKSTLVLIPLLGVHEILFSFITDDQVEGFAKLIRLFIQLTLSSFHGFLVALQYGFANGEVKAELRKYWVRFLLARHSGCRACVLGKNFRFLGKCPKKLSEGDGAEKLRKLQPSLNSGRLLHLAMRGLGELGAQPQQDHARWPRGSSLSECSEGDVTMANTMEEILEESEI
# B1: Compound 45 (peptide)
# peptide: H-H[Aib]EGSFTSELATILDEQAAK([AEEA-AEEA-γGlu-C20 diacid])DFIAWLIEHKITD-OH
# SMILES: CC[C@H](C)[C@H](NC(=O)[C@H](Cc1ccccc1)NC(=O)[C@H](CC(=O)O)NC(=O)[C@H](CCCCNC(=O)COCCOCCNC(=O)COCCOCCNC(=O)CC[C@H](NC(=O)CCCCCCCCCCCCCCCCCCC(=O)O)C(=O)O)NC(=O)[C@H](C)NC(=O)[C@H](C)NC(=O)[C@H](CCC(N)=O)NC(=O)[C@H](CCC(=O)O)NC(=O)[C@H](CC(=O)O)NC(=O)[C@H](CC(C)C)NC(=O)[C@@H](NC(=O)[C@@H](NC(=O)[C@H](C)NC(=O)[C@H](CC(C)C)NC(=O)[C@H](CCC(=O)O)NC(=O)[C@H](CO)NC(=O)[C@@H](NC(=O)[C@H](Cc1ccccc1)NC(=O)[C@H](CO)NC(=O)CNC(=O)[C@H](CCC(=O)O)NC(=O)C(C)(C)NC(=O)[C@@H](N)Cc1c[nH]cn1)[C@@H](C)O)[C@@H](C)O)[C@@H](C)CC)C(=O)N[C@@H](C)C(=O)N[C@@H](Cc1c[nH]c2ccccc12)C(=O)N[C@@H](CC(C)C)C(=O)N[C@H](C(=O)N[C@@H](CCC(=O)O)C(=O)N[C@@H](Cc1c[nH]cn1)C(=O)N[C@@H](CCCCN)C(=O)N[C@H](C(=O)N[C@H](C(=O)N[C@@H](CC(=O)O)C(=O)O)[C@@H](C)O)[C@@H](C)CC)[C@@H](C)CC
# B2: Compound 42 (peptide)
# peptide: H-H[Aib]EGSFTSEK([AEEA-AEEA-γGlu-C20 diacid])ATILDEQAARDFIAWLIEHKITD-OH
# SMILES: CC[C@H](C)[C@H](NC(=O)[C@H](Cc1ccccc1)NC(=O)[C@H](CC(=O)O)NC(=O)[C@H](CCCNC(=N)N)NC(=O)[C@H](C)NC(=O)[C@H](C)NC(=O)[C@H](CCC(N)=O)NC(=O)[C@H](CCC(=O)O)NC(=O)[C@H](CC(=O)O)NC(=O)[C@H](CC(C)C)NC(=O)[C@@H](NC(=O)[C@@H](NC(=O)[C@H](C)NC(=O)[C@H](CCCCNC(=O)COCCOCCNC(=O)COCCOCCNC(=O)CC[C@H](NC(=O)CCCCCCCCCCCCCCCCCCC(=O)O)C(=O)O)NC(=O)[C@H](CCC(=O)O)NC(=O)[C@H](CO)NC(=O)[C@@H](NC(=O)[C@H](Cc1ccccc1)NC(=O)[C@H](CO)NC(=O)CNC(=O)[C@H](CCC(=O)O)NC(=O)C(C)(C)NC(=O)[C@@H](N)Cc1c[nH]cn1)[C@@H](C)O)[C@@H](C)O)[C@@H](C)CC)C(=O)N[C@@H](C)C(=O)N[C@@H](Cc1c[nH]c2ccccc12)C(=O)N[C@@H](CC(C)C)C(=O)N[C@H](C(=O)N[C@@H](CCC(=O)O)C(=O)N[C@@H](Cc1c[nH]cn1)C(=O)N[C@@H](CCCCN)C(=O)N[C@H](C(=O)N[C@H](C(=O)N[C@@H](CC(=O)O)C(=O)O)[C@@H](C)O)[C@@H](C)CC)[C@@H](C)CC
# B3: Compound 44 (peptide)
# peptide: H-H[Aib]EGSFTSELATILEGK([AEEA-AEEA-γGlu-C20 diacid])AARDFIAWLIEHKITD-OH
# B4: Compound 43 (peptide)
# peptide: H-H[Aib]EGSFTSELATILDK([AEEA-AEEA-γGlu-C20 diacid])KAARDFIAWLIEHKITD-OH
# SMILES: CC[C@H](C)[C@H](NC(=O)[C@H](Cc1ccccc1)NC(=O)[C@H](CC(=O)O)NC(=O)[C@H](CCCNC(=N)N)NC(=O)[C@H](C)NC(=O)[C@H](C)NC(=O)[C@H](CCCCN)NC(=O)[C@H](CCCCNC(=O)COCCOCCNC(=O)COCCOCCNC(=O)CC[C@H](NC(=O)CCCCCCCCCCCCCCCCCCC(=O)O)C(=O)O)NC(=O)[C@H](CC(=O)O)NC(=O)[C@H](CC(C)C)NC(=O)[C@@H](NC(=O)[C@@H](NC(=O)[C@H](C)NC(=O)[C@H](CC(C)C)NC(=O)[C@H](CCC(=O)O)NC(=O)[C@H](CO)NC(=O)[C@@H](NC(=O)[C@H](Cc1ccccc1)NC(=O)[C@H](CO)NC(=O)CNC(=O)[C@H](CCC(=O)O)NC(=O)C(C)(C)NC(=O)[C@@H](N)Cc1c[nH]cn1)[C@@H](C)O)[C@@H](C)O)[C@@H](C)CC)C(=O)N[C@@H](C)C(=O)N[C@@H](Cc1c[nH]c2ccccc12)C(=O)N[C@@H](CC(C)C)C(=O)N[C@H](C(=O)N[C@@H](CCC(=O)O)C(=O)N[C@@H](Cc1c[nH]cn1)C(=O)N[C@@H](CCCCN)C(=O)N[C@H](C(=O)N[C@H](C(=O)N[C@@H](CC(=O)O)C(=O)O)[C@@H](C)O)[C@@H](C)CC)[C@@H](C)CC
# B5: Compound 39 (peptide)
# peptide: HXEGTFTSELATILDEQAARDFIAWLIAHKITDXXXXXXX
# HELM: PEPTIDE1{H.[Aib].E.G.T.F.T.S.E.L.A.T.I.L.D.E.Q.A.A.R.D.F.I.A.W.L.I.A.H.K.I.T.D.[dK].[dK].[dK].[dK].[dK].[dK].[am]}|PEPTIDE2{[O=C(O)CCCCCCCCCCCCCCCCC(=O)[*:2]].[gGlu]}$PEPTIDE1,PEPTIDE2,39:R3-2:R2$$$V2.0
# SMILES: CC[C@H](C)[C@H](NC(=O)[C@H](CC(C)C)NC(=O)[C@H](Cc1c[nH]c2ccccc12)NC(=O)[C@H](C)NC(=O)[C@@H](NC(=O)[C@H](Cc1ccccc1)NC(=O)[C@H](CC(=O)O)NC(=O)[C@H](CCCNC(=N)N)NC(=O)[C@H](C)NC(=O)[C@H](C)NC(=O)[C@H](CCC(N)=O)NC(=O)[C@H](CCC(=O)O)NC(=O)[C@H](CC(=O)O)NC(=O)[C@H](CC(C)C)NC(=O)[C@@H](NC(=O)[C@@H](NC(=O)[C@H](C)NC(=O)[C@H](CC(C)C)NC(=O)[C@H](CCC(=O)O)NC(=O)[C@H](CO)NC(=O)[C@@H](NC(=O)[C@H](Cc1ccccc1)NC(=O)[C@@H](NC(=O)CNC(=O)[C@H](CCC(=O)O)NC(=O)C(C)(C)NC(=O)[C@@H](N)Cc1c[nH]cn1)[C@@H](C)O)[C@@H](C)O)[C@@H](C)O)[C@@H](C)CC)[C@@H](C)CC)C(=O)N[C@@H](C)C(=O)N[C@@H](Cc1c[nH]cn1)C(=O)N[C@@H](CCCCN)C(=O)N[C@H](C(=O)N[C@H](C(=O)N[C@@H](CC(=O)O)C(=O)N[C@H](CCCCN)C(=O)N[C@H](CCCCN)C(=O)N[C@H](CCCCN)C(=O)N[C@H](CCCCN)C(=O)N[C@H](CCCCN)C(=O)N[C@H](CCCCNC(=O)CC[C@H](NC(=O)CCCCCCCCCCCCCCCCC(=O)O)C(=O)O)C(N)=O)[C@@H](C)O)[C@@H](C)CC
# B6: Compound 40 (peptide)
# peptide: B5 peptide with T5S, A28E
# HELM: PEPTIDE1{H.[Aib].E.G.S.F.T.S.E.L.A.T.I.L.D.E.Q.A.A.R.D.F.I.A.W.L.I.E.H.K.I.T.D.[dK].[dK].[dK].[dK].[dK].[dK].[am]}|PEPTIDE2{[O=C(O)CCCCCCCCCCCCCCCCC(=O)[*:2]].[gGlu]}$PEPTIDE1,PEPTIDE2,39:R3-2:R2$$$V2.0
# SMILES: CC[C@H](C)[C@H](NC(=O)[C@H](Cc1ccccc1)NC(=O)[C@H](CC(=O)O)NC(=O)[C@H](CCCNC(=N)N)NC(=O)[C@H](C)NC(=O)[C@H](C)NC(=O)[C@H](CCC(N)=O)NC(=O)[C@H](CCC(=O)O)NC(=O)[C@H](CC(=O)O)NC(=O)[C@H](CC(C)C)NC(=O)[C@@H](NC(=O)[C@@H](NC(=O)[C@H](C)NC(=O)[C@H](CC(C)C)NC(=O)[C@H](CCC(=O)O)NC(=O)[C@H](CO)NC(=O)[C@@H](NC(=O)[C@H](Cc1ccccc1)NC(=O)[C@H](CO)NC(=O)CNC(=O)[C@H](CCC(=O)O)NC(=O)C(C)(C)NC(=O)[C@@H](N)Cc1c[nH]cn1)[C@@H](C)O)[C@@H](C)O)[C@@H](C)CC)C(=O)N[C@@H](C)C(=O)N[C@@H](Cc1c[nH]c2ccccc12)C(=O)N[C@@H](CC(C)C)C(=O)N[C@H](C(=O)N[C@@H](CCC(=O)O)C(=O)N[C@@H](Cc1c[nH]cn1)C(=O)N[C@@H](CCCCN)C(=O)N[C@H](C(=O)N[C@H](C(=O)N[C@@H](CC(=O)O)C(=O)N[C@H](CCCCN)C(=O)N[C@H](CCCCN)C(=O)N[C@H](CCCCN)C(=O)N[C@H](CCCCN)C(=O)N[C@H](CCCCN)C(=O)N[C@H](CCCCNC(=O)CC[C@H](NC(=O)CCCCCCCCCCCCCCCCC(=O)O)C(=O)O)C(N)=O)[C@@H](C)O)[C@@H](C)CC)[C@@H](C)CC
# B7: Compound 41 (peptide)
# peptide: H-H[Aib]EGTFTSELATILDK([γGlu-C20 diacid])QAARDFIAWLIQHKITD-OH
# Target: human glucagon-like peptide 1 receptor (GLP-1 R) (human, UniProt P43220 24-463)
# Assay: cell-based or functional assay
row,Binder,EC50 GLP-1 (nM); cAMP response [nM]
1,B1,1.4
2,B2,0.067
3,B3,0.063
4,B4,0.096
5,B5,0.044
6,B6,0.074
7,B7,0.048

# Target: T1, human GLP-2 receptor (hGLP2-R)
# Assay: cell-based or functional assay
row,Binder,EC50 GLP-2 (nM); cAMP response [nM]
1,B1,0.36
2,B2,0.33
3,B3,0.14
4,B4,0.15
5,B5,0.98
6,B6,0.5
7,B7,0.62
